In publication PMC6994640:

Target: CgIgR (native, oyster hemocytes) (Crassostrea gigas (endogenous in oyster hemocytes))
Test: cross-linking

With “CgIgR (native, oyster hemocytes) (receptor)” the stoichiometry N was 2.
